Assay [1] addresses T1, soluble extracellular D2-D3 region of human FGFR1c (Asp142-Arg365) (human, UniProt P11362 142-365).
T1 chain: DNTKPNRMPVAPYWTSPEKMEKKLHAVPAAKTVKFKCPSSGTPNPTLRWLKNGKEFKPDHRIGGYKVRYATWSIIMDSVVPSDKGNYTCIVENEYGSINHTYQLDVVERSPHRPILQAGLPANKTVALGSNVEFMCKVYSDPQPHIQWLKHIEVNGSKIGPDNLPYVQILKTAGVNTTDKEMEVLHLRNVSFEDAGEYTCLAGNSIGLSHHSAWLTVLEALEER
Put plainly: SPR.

For assay [2], the target named is T2, soluble extracellular D2-D3 region of human FGFR1c (Asp142-Arg365) (human, UniProt P11362 142-365).
T2 construct: fibroblast growth factor receptor 1, 'c' splice isoform, human, extracellular D2-D3 region, residues Asp142-Arg365; also called FGFR1c ectodomain; FGFR1c isoform; source: E. coli (BL21), purified
T2 sequence (looked up): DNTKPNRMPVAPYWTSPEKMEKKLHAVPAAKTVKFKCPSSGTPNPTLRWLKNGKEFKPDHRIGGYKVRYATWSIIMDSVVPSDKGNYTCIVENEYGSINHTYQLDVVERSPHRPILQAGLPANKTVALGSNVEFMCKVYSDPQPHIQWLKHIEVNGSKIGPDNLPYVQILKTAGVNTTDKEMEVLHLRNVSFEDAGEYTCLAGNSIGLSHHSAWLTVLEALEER
As to the kind of experiment: SPR; BIAcore T200; HBS-EP buffer (10 mM HEPES-NaOH, pH 7.4, 150 mM NaCl, 3 mM EDTA, 0.005% Surfactant P20); which partner was immobilised is not told in the main text. Conditions: both partners purified. (In general: In SPR one partner is held on a chip, and binding of the other changes the refractive index at the surface.)

A word on the Kd: it is the free concentration of one partner at which half of the binding sites on the other are occupied at equilibrium, for simple one-to-one binding. A higher Kd goes with a looser complex.

B1: full length mature form human FGF4 (mFGF4) (Ala31-Leu206) (ligand, UniProt P08620 31-206, looked up)
chain: APTAPNGTLEAELERRWESLVALSLARLPVAAQPKEAAVQSGAGDYLLGIKRLRRLYCNVGIGFHLQALPDGRIGGAHADTRDSLLELSPVERGVVSIFGVASRFFVAMSSKGKLYGSPFFTDECTFKEILLPNNYNAYESYKYPGMFIALSKNGKTKKGNRVSPTMKVTHFLPRL
notes: fibroblast growth factor 4, human, full length mature form, residues Ala31-Leu206; also called wild-type parent molecule; source: E. coli (BL21), purified
For the molecule B1, in assay [1], the Kd stood at 464 nM. Further, the binding result in assay [2] is on record as “binds”.

B2: N-terminally truncated human FGF4 (rFGF4) (Ala67-Leu206) (domain or fragment, UniProt P08620 67-206, looked up)
chain: AAVQSGAGDYLLGIKRLRRLYCNVGIGFHLQALPDGRIGGAHADTRDSLLELSPVERGVVSIFGVASRFFVAMSSKGKLYGSPFFTDECTFKEILLPNNYNAYESYKYPGMFIALSKNGKTKKGNRVSPTMKVTHFLPRL
notes: fibroblast growth factor 4, human, engineered N-terminal truncation, residues Ala67-Leu206; also called truncated rFGF4; source: E. coli (BL21), purified
The molecule B2 came in with a Kd in assay [1] of 716 nM. Moreover, the binding result in assay [2] was “binds”.

These data come from publication PMC8671394, “Paracrine FGFs target skeletal muscle to exert potent anti-hyperglycemic effects” (Nature Communications, 2021).
